Paper PMC4231788

Tests used:
[1] = molecular target: full-length soluble trimeric gp140 immunogen from the clade C TV1 strain (HIV-1 (clade C, strain TV1)); assay: cryo-EM 2D comparison of trimers; 2D comparison of gp140ΔV2TV1 with full length gp140 constructs; trimeric diameters measured
[2] = molecular target: full-length soluble trimeric gp140 immunogen from the clade C TV1 strain (HIV-1 (clade C, strain TV1)); assay: cryo-EM structure; unliganded gp140 in vitreous ice, 0.1 mg/ml, Tris buffer 20 mM pH 7.9, 50 mM NaCl; single particle reconstruction, ~21 Å at 0.5 FSC
[3] = molecular target: gp140 of clade C strain CAP45.2.00.G3 (HIV-1 (clade C, strain CAP45.2.00.G3)); assay: cryo-EM 2D comparison of trimers; 2D comparison of gp140ΔV2TV1 with full length gp140 constructs; trimeric diameters measured
[4] = molecular target: gp140 of clade C strain CAP239.2.00.G3J (HIV-1 (clade C, strain CAP239.2.00.G3J)); assay: as above
[5] = molecular target: gp140 of clade C strain Du156.1 (HIV-1 (clade C, strain Du156.1)); assay: as above
[6] = molecular target: gp140ΔV2TV1, clade C gp140 trimer with a 30-residue truncation in the V2 loop (HIV-1 (clade C, strain TV1)); assay: as above

Substance: full-length soluble trimeric gp140 immunogen from the clade C TV1 strain (natural protein)
- stoichiometry N [1]: 3
- stoichiometry N [2]: 3

Substance: gp140 of clade C strain CAP45.2.00.G3 (natural protein)
- stoichiometry N [3]: 3

Substance: gp140 of clade C strain CAP239.2.00.G3J (natural protein)
- stoichiometry N [4]: 3

Substance: gp140 of clade C strain Du156.1 (natural protein)
- stoichiometry N [5]: 3

Substance: gp140ΔV2TV1, clade C gp140 trimer with a 30-residue truncation in the V2 loop (natural protein)
- stoichiometry N [6]: 3
